T1: ArnR1 (Sulfolobus acidocaldarius, UniProt Q4J9L2 1-269)
T1 sequence: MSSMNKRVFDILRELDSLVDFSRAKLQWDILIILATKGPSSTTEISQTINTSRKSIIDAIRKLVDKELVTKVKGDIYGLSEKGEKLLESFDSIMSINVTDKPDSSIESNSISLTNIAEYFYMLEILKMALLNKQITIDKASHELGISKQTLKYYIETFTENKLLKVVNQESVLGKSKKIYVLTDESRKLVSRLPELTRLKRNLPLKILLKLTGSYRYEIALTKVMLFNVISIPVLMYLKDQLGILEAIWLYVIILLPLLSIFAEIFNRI

B1: pflaB ArnR box-1 (dsDNA)
DNA 1: ATTGTGATTTTTGGTCGAAG
DNA 2: CTTCGACCAAAAATCACAAT
B2: pupsX (dsDNA)
DNA 1: TCTCCCATATTACTATTGCCTATCTCGTTAATAGTATTTTC
DNA 2: GAAAATACTATTAACGAGATAGGCAATAGTAATATGGGAGA
B3: paapF (dsDNA)
DNA 1: GTCTAAAGCCATAAAGATGAGCTTATTTTCATAGATTTAAGT
DNA 2: ACTTAAATCTATGAAAATAAGCTCATCTTTATGGCTTTAGAC
B4: pSaci_2122 (dsDNA)
DNA 1: ATAATTATTACTCAGCGTTTATAACGTTTAACATGTTAAAA
DNA 2: TTTTAACATGTTAAACGTTATAAACGCTGAGTAATAATTAT
B5: pflaB41 (dsDNA)
DNA 1: ACGTCGATCAGCAGTCGAAAAATTGTGATTTTTGGTCGAAG
DNA 2: CTTCGACCAAAAATCACAATTTTTCGACTGCTGATCGACGT
B6: pflaB ArnR box-2 (dsDNA)
DNA 1: AACGTCGATCAGCAGTCGAA
DNA 2: TTTCGACTGCTGATCGACGTT

Target: T1, ArnR1
Test: MST; MST: 2.5 nM labeled dsDNA, 0.156-18 uM protein, 24 C, 10 min incubation; DNA annealed in 20 mM Tris/HCl pH 8, 200 mM NaCl, 0.05% DDM; protein in 20 mM Tris/HCl
Conditions: protein: recombinant, tags: N-terminal His10
[1] = label: 5' Alexa Fluor 647, blunt

Binder	binding result [1]	further results
B1	no binding	–
B2	–	binding result (label: Alexa Fluor 647, blunt): no binding
B3	no binding	–
B4	no binding	–
B5	–	Kd [1]: 3.31 µM
B6	–	binding result (label: 5' Alexa Fluor 647, 5' overhang 1 nt on strand 2 as printed): no binding

Source: article PMC6396743, “Two membrane-bound transcription factors regulate expression of various type-IV-pili surface structures in Sulfolobus acidocaldarius”
